Positions count from the first letter of the chain named.

Assay in all cases: cell-based or functional assay
For test [1], the target named is T1, KCNQ3(G318S) dominant negative mutant (human, UniProt O43525 1-872).
T1 sequence (looked up): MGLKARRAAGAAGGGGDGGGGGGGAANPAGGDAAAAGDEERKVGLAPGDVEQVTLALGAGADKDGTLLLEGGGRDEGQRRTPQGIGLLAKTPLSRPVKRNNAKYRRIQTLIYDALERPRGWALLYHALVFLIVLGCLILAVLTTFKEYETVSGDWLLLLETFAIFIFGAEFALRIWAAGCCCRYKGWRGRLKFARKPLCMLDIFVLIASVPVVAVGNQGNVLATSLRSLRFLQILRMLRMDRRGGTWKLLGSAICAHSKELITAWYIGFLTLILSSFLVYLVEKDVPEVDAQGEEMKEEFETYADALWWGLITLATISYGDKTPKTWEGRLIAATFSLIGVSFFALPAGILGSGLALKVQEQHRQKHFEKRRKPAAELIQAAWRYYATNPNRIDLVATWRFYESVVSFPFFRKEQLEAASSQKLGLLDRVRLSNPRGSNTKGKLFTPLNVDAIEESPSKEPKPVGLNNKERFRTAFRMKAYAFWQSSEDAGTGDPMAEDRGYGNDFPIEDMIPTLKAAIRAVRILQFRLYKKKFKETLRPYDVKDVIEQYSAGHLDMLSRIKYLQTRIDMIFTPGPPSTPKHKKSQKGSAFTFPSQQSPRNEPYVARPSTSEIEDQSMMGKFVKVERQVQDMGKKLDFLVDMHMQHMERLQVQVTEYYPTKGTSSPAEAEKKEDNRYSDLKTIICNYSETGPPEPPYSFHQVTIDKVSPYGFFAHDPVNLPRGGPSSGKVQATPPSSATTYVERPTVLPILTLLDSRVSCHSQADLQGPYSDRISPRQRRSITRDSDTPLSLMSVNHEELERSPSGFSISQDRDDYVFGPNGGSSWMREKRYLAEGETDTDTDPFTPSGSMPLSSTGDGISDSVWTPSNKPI

For test [2], the target named is T2, KCNQ3 potassium channel subunit (human, UniProt O43525 1-872).
T2 sequence (looked up): T1 sequence (looked up) with S318G

For test [3], the target named is T3, KCNQ3 (T323Y) mutant (human, UniProt O43525 1-872).
T3 sequence (looked up): T1 sequence (looked up) with S318G, T323Y

B1: KCNQ5 potassium channel subunit (other)
chain: MKDVESGRGRVLLNSAAARGDGLLLLGTRAATLGGGGGGLRESRRGKQGARMSLLGKPLSYTSSQSCRRNVKYRRVQNYLYNVLERPRGWAFIYHAFVFLLVFGCLILSVFSTIPEHTKLASSCLLILEFVMIVVFGLEFIIRIWSAGCCCRYRGWQGRLRFARKPFCVIDTIVLIASIAVVSAKTQGNIFATSALRSLRFLQILRMVRMDRRGGTWKLLGSVVYAHSKELITAWYIGFLVLIFSSFLVYLVEKDANKEFSTYADALWWGTITLTTIGYGDKTPLTWLGRLLSAGFALLGISFFALPAGILGSGFALKVQEQHRQKHFEKRRNPAANLIQCVWRSYAADEKSVSIATWKPHLKALHTCSPTKKEQGEASSSQKLSFKERVRMASPRGQSIKSRQASVGDRRSPSTDITAEGSPTKVQKSWSFNDRTRFRPSLRLKSSQPKPVIDADTALGTDDVYDEKGCQCDVSVEDLTPPLKTVIRAIRIMKFHVAKRKFKETLRPYDVKDVIEQYSAGHLDMLCRIKSLQTRVDQILGKGQITSDKKSREKITAEHETTDDLSMLGRVVKVEKQVQSIESKLDCLLDIYQQVLRKGSASALALASFQIPPFECEQTSDYQSPVDSKDLSGSAQNSGCLSRSTSANISRGLQFILTPNEFSAQTFYALSPTMHSQATQVPISQSDGSAVAATNTIANQINTAPKPAAPTTLQIPPPLPAIKHLPRPETLHPNPAGLQESISDVTTCLVASKENVQVAQSNLTKDRSMRKSFDMGGETLLSVCPMVPKDLGKSLSVQNLIRSTEELNIQLSGSESSGSRGSQDFYPKWRESKLFITDEEVGPEETETDTFDAAPQPAREAAFASDSLRTGRSRSSQSICKAGESTDALSLPHVKLK
For the molecule B1, the “current relative to WT KCNQ5 currents on co-injection with the dominant negative mutant” value in test [1] was less than 50%. Moreover, the “IC50 of extracellular TEA (small molecule) on currents of co-expressed KCNQ5 and KCNQ3 (1:1); KCNQ5 homomers 71 mM” value in test [2] was approximately 200 mM. Further, in test [3], the “IC50 of extracellular TEA (small molecule) on currents of KCNQ5 co-expressed with KCNQ3 (T323Y); KCNQ5 homomers 71 mM” value was approximately 30 mM.
